Experimental data as given in patent US20240082183.

Key:
[1] = biological target: SDHA (endogenous, in mitochondria isolated from mouse IECs and in C57BL/6 primary colonic epithelial cells), Q8K2B3
[2] = biological target: mutated SDHA protein with His Tag (mouse; Ile-Glu-Asp-Gly changed to Ile-Glu-Ala-Gly at the putative GzmB cleavage site), Q8K2B3
mutated SDHA protein with His Tag (mouse; Ile-Glu-Asp-Gly changed to Ile-Glu-Ala-Gly at the putative GzmB cleavage site), Q8K2B3, sequence (Q8K2B3 whole entry, looked up, change not shown): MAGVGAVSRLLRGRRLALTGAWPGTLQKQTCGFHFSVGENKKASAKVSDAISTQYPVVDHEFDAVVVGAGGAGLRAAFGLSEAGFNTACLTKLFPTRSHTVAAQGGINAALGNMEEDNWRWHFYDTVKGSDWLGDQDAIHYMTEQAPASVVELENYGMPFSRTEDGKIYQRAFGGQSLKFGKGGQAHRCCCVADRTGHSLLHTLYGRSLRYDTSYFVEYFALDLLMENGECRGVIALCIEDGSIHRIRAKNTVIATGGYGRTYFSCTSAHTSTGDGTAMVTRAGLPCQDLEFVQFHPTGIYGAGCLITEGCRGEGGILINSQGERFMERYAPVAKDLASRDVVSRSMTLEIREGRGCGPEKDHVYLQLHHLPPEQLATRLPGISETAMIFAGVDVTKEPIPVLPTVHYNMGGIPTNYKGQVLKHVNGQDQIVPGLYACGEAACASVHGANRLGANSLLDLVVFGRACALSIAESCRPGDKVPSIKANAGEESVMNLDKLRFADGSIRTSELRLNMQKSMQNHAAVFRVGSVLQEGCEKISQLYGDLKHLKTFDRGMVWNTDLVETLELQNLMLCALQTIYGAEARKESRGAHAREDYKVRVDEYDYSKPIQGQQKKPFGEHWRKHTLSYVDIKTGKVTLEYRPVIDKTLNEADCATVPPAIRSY

SDHA (endogenous, in mitochondria isolated from mouse IECs and in C57BL/6 primary colonic epithelial cells), Q8K2B3, sequence (Q8K2B3 43-664): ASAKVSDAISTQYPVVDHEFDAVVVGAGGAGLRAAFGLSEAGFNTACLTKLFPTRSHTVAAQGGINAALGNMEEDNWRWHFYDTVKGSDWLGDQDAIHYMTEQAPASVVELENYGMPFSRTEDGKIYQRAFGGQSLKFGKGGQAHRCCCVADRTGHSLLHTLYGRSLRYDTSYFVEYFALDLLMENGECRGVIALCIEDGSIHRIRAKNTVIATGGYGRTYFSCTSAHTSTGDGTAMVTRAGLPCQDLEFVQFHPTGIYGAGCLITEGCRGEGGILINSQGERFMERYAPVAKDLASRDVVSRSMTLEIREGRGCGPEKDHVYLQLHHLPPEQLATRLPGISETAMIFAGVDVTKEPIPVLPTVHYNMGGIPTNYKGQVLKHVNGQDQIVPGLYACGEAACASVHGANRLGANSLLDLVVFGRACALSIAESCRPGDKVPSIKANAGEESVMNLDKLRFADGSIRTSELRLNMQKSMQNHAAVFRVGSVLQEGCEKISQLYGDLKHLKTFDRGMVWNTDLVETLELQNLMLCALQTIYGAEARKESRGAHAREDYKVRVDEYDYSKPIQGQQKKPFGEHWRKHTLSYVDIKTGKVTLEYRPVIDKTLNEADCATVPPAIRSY

B1: recombinant mouse Granzyme B (protein)
chain: IIGGHEVKPHSRPYMALLSIKDQQPEAICGGFLIREDFVLTAAHCEGSIINVTLGAHNIKEQEKTQQVIPMVKCIPHPDYNPKTFSNDIMLLKLKSKAKRTRAVRPLNLPRRNVNVKPGDVCYVAGWGRMAPMGKYSNTLQEVELTVQKDRECESYFKNRYNKTNQICAGDPKTKRASFRGDSGGPLVCKKVAAGIVSYGYKDGSPPRAFTKVSSFLSWIKKTMKSS
proteolysis of SDHA by GzmB in PCECs treated with perforin, Granzyme B and Serpin 3A for 6 hours (immunoblot of SDHA) (Serpin 3A): The presence of Serpin 3A prevented the proteolysis of SDHA by GzmB
proteolysis of SDHA in isolated IEC mitochondria (immunoblot of full length and cleaved SDHA) [1]: Treatment with GzmB caused proteolysis of SDHA with a reduction in SDHA with an increase in SDHA cleaved fragments
proteolysis of mutated SDHA protein (anti-His immunoblot, 6 hours) [2]: the mutation of the cleavage site prevented proteolysis of SDHA by GzmB
